Test results from publication PMC6703867 (Science Advances, 2019).

Biological target: T1, MBP-AtWRKY20 fusion protein (Arabidopsis thaliana, UniProt Q93WV0 1-557)
T1 sequence (looked up): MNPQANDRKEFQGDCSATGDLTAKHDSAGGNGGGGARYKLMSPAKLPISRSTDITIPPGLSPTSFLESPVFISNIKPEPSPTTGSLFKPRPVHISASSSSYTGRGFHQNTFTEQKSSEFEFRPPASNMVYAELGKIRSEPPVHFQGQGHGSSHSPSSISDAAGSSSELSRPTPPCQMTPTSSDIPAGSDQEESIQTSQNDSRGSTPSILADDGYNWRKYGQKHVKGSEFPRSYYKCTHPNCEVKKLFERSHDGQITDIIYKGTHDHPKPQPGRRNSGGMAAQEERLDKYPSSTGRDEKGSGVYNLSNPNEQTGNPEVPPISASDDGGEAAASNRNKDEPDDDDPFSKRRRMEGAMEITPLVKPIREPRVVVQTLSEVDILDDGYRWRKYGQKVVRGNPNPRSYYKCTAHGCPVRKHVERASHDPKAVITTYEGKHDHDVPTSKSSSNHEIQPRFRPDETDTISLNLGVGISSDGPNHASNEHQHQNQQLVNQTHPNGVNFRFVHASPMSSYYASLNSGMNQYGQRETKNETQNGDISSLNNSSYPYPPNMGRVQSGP
Assay: pull-down

binding result: binds
B1: GST-AtORA59 (natural protein)
chain: not shown
